Reference: article PMC12746902, “Pathogenic Gαo Mutants Drive Dominant GPCR Coupling in GNAO1 Encephalopathies” (The FASEB Journal, 2025)

T1: M2 muscarinic acetylcholine receptor with C-terminal split-YFP fragment YN (M2R-YN) (UniProt P08172 1-466)
T1 sequence (looked up): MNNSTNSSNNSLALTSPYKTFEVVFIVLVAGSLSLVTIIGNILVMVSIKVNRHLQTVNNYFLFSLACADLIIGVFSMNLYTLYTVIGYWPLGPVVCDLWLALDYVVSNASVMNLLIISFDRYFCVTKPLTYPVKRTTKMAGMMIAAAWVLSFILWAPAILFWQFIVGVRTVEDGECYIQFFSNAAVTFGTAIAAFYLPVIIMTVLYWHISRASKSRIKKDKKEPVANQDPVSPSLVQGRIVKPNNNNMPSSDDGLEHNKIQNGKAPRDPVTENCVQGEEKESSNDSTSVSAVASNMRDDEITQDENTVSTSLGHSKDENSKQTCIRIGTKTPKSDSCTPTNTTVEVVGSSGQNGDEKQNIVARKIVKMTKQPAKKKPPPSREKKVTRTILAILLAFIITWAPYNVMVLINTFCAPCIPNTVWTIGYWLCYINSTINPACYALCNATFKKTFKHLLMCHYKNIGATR


Columns and labels:
[1] = target: M2 muscarinic acetylcholine receptor with C-terminal split-YFP fragment YN (M2R-YN) (UniProt P08172)
[2] = target: M2 muscarinic acetylcholine receptor with C-terminal split-YFP fragment YN (M2R-YN) (UniProt P08172); remark: listed apart in the source
[3] = target: T1, M2 muscarinic acetylcholine receptor …; experiment: cell-based or functional assay

Sequence of Gαo ins4A (four-alanine insertion in the C-terminal α5-helix) with internal split-YFP fragment YC at Gly92 (P09471 whole entry, the tested form may be a part): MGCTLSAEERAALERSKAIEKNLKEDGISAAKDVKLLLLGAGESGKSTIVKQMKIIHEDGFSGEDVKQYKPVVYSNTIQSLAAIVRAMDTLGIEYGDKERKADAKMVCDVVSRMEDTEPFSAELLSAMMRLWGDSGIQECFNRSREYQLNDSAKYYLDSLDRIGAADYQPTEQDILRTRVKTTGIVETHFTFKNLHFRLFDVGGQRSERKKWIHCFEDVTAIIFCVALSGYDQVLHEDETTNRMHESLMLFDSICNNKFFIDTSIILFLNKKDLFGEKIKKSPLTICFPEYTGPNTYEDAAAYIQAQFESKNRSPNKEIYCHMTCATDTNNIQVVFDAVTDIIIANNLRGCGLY

reduction of ACh-mediated M2R phosphorylation (pT307/pS309 relative to total M2R) in immunoprecipitated split-YFP complexes, 100 μM ACh for 5 min [1] [%]	reduction of ACh-mediated phosphorylation (pT307/pS309 relative to total receptor) of immunoprecipitated GFP-M2R with co-expressed UNTAGGED Gαo ins4A, 100 μM ACh for 5 min [2] [%]	reduction of ACh-mediated phosphorylation (pT307/pS309 relative to total receptor) of immunoprecipitated GFP-M2R with co-expressed UNTAGGED Gαo insPQ, 100 μM ACh for 5 min [3] [%]	Molecule
> 90	95	–	Gαo ins4A (four-alanine insertion in the C-terminal α5-helix) with internal split-YFP fragment YC at Gly92 (from UniProt P09471 1-354) (natural protein)
–	–	30	Gαo T241_N242insPQ with internal split-YFP fragment YC at Gly92 (natural protein, UniProt P09471 1-354, looked up) MGCTLSAEERAALERSKAIEKNLKEDGISAAKDVKLLLLGAGESGKSTIVKQMKIIHEDGFSGEDVKQYKPVVYSNTIQSLAAIVRAMDTLGIEYGDKERKADAKMVCDVVSRMEDTEPFSAELLSAMMRLWGDSGIQECFNRSREYQLNDSAKYYLDSLDRIGAADYQPTEQDILRTRVKTTGIVETHFTFKNLHFRLFDVGGQRSERKKWIHCFEDVTAIIFCVALSGYDQVLHEDETTPQNRMHESLMLFDSICNNKFFIDTSIILFLNKKDLFGEKIKKSPLTICFPEYTGPNTYEDAAAYIQAQFESKNRSPNKEIYCHMTCATDTNNIQVVFDAVTDIIIANNLRGCGLY
